Experimental data: the supplement of paper PMC9170038

Assays:
[1] = system: MS2 coat protein; test: apparent KD of MS2 coat protein, switch OFF state (with FMN for OFF switches, without FMN for ON switches); designed switch direction (-1 OFF switch, 1 ON switch): -1; higher = weaker reporter binding; conditions: FMN input: 0 or 200 uM; Eterna round: R93 (includes R88 designs)
Outline: (§1)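 SNAP-549-labelled MS2 coat protein was titrated onto designed RNA switches that had been transcribed on-chip from Illumina sequencing clusters. Amounts doubled from 0.7 or 1.5 nM to 3 µM in 100 mM Tris-HCl pH 7.5, 80 mM KCl, 4 mM MgCl2, with constant ligand or without. Apparent KD is the median per design of normalised cluster binding-curve fits.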

[2] = system: MS2 coat protein; test: apparent KD of MS2 coat protein, switch ON state; designed switch direction (-1 OFF switch, 1 ON switch): -1; higher = weaker reporter binding; conditions: FMN input: 0 or 200 uM; Eterna round: R93 (includes R88 designs)
Outline: as §1

Sequence | apparent KD of MS2 coat protein [1] | apparent KD of MS2 coat protein [2]
AAAAAACAUGAGGAUCACCCAUGUGAGGAUAUGCUAAAAAAAUCCGCAUGAAAAAAUAGCAGAAGGCACAUAAA [PK2] | 52.5 nM | 29.6 nM
AAAAAACAUGAGGAUCACCCAUGUUAGGAUAUGCUAUGGAAAAUAAAAAUAAAACAUAGCAGAAGGGACAAAAA [Denovo 1] | 32 nM | 21.3 nM
AAAAAACAUGAGGAUCACCCAUGUUAGGAUAUUCCUAAAAAAAAAAAAAAAAAAAAUGGAAGAAGGGACAAAAA [excalibur 9] | 20.6 nM | 21.2 nM
AAAAACCUAGGAUAUACAUGAGGAUCACCCAUGUAAAGAAACAAAAAGGGAAACACAAGUAGAAGGAGGAAGAA [JR_Exc003_Sub1203] | 27.4 nM | 22.6 nM
AAAAACUGAGGAUAUACAUGAGGAUCACCCAUGUGAAAGAACGAAAAACGAAAAGCAAGUAGAAGGCAGAAAAA [Ruby 77] | 26.1 nM | 20.9 nM
AAAAAGAGAGGAUAUACAUGAGGAUCACCCAUGUAACAUUAAAUAAAUAAAAUAAAGUGUAGAAGGCUCAAAAA [65%, Moding Exclusion3-cac2, 24] | 34.3 nM | 27.9 nM
AAAAAGAGAGGAUAUACAUGAGGAUCACCCAUGUGAAAGACGAAAAAAAGUCUAAAGUGUAGAAGGCUCAAAAA [65%, Moding Exclusion3-cac2, 14] | 104 nM | 25.3 nM
AAAAAGAUAGGAUAUACGAACAUGUCAAAAGACGUGAAGGGACAUGAGGAUCACCCAUGUAGAAGGAUUAAAAA [JL Wide Open 39] | 17.2 nM | 38.8 nM
AAAAAGCGAGGAUAUACAUGAGGAUCACCCAUGUAAAAAAAAAGAGAUGAAACAUCAUGUAGAAGGCGCAAAAA [Excls3-I] | 67.1 nM | 131 nM
AAAAAGCUAGGAUAUACGAAAAAAAAGGGUAGAAAAAAAAAACAUGAGGAUCACCCAUGUAGAAGGAGCAAAAA [Mat - Exclusion 2 - Tesla mod - D34] | 103 nM | 51.5 nM
AAAAAGGGAGGAUAUACAUGAGGAUCACCCAUGUAUCAGACGAAAAAGAGUCUGAAAUGUAGAAGGCCCAAAAA [65%, Moding Exclusion3-cac2, 2] | 35.8 nM | 20.7 nM
AAAAAGGUAGGAUAUACAUGAGGAUCACCCAUGUACAUAAAUGGAGAAAAAAACAGUUGUAGAAGGGCCAAAAA [Ex3 Malc#9] | 34.5 nM | 41.7 nM
AAAAAGGUAGGAUAUACAUGAGGAUCACCCAUGUCGCGGCGCGCGGACAGCCCGCCCUGUAGAAGGACCAAAAA [Default title] | 28.6 nM | 35 nM
AAAAAGUCAGGAUAUGUGGAAAAAAUAAAAAAAAUAAAAACACAGAAGGGACAUGAGGAUCACCCAUGUUAAAA [Ex 4 May 18] | 35.1 nM | 45.4 nM
AAAAAGUGAGGAUAUACGCUGAGGAGUAGACACAACCUGGCGUAGAAGGCACAUGAGGAUCACCCAUGUCCAAA [EX4 Malc#12] | 41.5 nM | 24.3 nM
AAAAAGUGAGGAUAUCGGAAAAAAAAAAAAAAAAAAAAAAACGAGAAGGCACAUGAGGAUCACCCAUGUAAAAA [all GC all the time + G boost - take 2] | 45.6 nM | 42.2 nM
AAAAAGUGAGGAUAUUCGGAUAGGAAAACGAAAACCUAUCCGAAGAAGGCACAUGAGGAUCACCCAUGUAAAGA [Mat - Exaclusion 4 - Eli mod - D40] | 40.2 nM | 30.8 nM

Sequence | apparent KD of MS2 coat protein [1] | apparent KD of MS2 coat protein [2]
AAAAAUGGAGGAUAUACAUGAGGAUCACCCAUGUGAAACAAAAAAAAAAACAAAAAAAGUAGAAGGCCAAAAAA [Gilly Gone Silly 2 - Jieux - Exclusion 3] | 53.6 nM | 36.7 nM
AAAACACAUGAGGAUCACCCAUGUGAGGAUAUGCAAAACCCAUAUAAAAAGGGAAAAAGCAGAAGGCACAAAAA [wbt round 1 mod 12] | 27.8 nM | 22.4 nM
AAAACACAUGAGGAUCACCCAUGUGAGGAUAUGCUAGUGAAAAUAAAAAUAAAACAUAGCAGAAGGCACAAGGA [Amethyst 79] | 45.8 nM | 43.7 nM
AAAAUGUCAGGAUAUUCGGAUAGGAAAACGAAAACCUAUCCGAAGAAGGGACAUGAGGAUCACCCAUGUAAAAA [Starry Exclusion 4.2 (cataway round 1 mod)] | 341 nM | 81.4 nM
AAAAUGUGAGGAUAUGUACGAAAAAAUAAAAAAAUAAAAGUACAGAAGGCACAUGAGGAUCACCCAUGUGAAAA [EX4 396: Minimal 9] | 79.1 nM | 28.3 nM
AAACGUAGAGGAUAUACAGGGCUAUUACGAAAGUAAUAGAAACAUGAGGAUCACCCAUGUAGAAGGCUACGAAA [Mod2 of Meechl 64% 1] | 67.9 nM | 162 nM
AAACUACUAGGAUAUACAACGGUGUCCUAACUACUAAGAAAACAUGAGGAUCACCCAUGUAGAAGGAGUAGUGA [Lauslabe] | 30.2 nM | 33.6 nM
AAAGAUGGAGGAUAUACAUGAGGAUCACCCAUGUGGAAUCUAAAAUGGGAAAAAGAAAGUAGAAGGCCAUAAAA [Ex 3 May 40] | 83.1 nM | 36.7 nM
AAAGAUUGAGGAUAUACAUGAGGAUCACCCAUGUAAAAAAAAAAAAGGGUGGAAGAAAGUAGAAGGCAACAAAA [Ex 3 May 46] | 284 nM | 80.6 nM
AAAGCUGAAGGAUAUACUUGGAAAAAAAAAAAAAAAAAAAAACAUGAGGAUCACCCAUGUAGAAGGUCAGAUAA [Mat - Mod] | 36.7 nM | 41.1 nM
AAAGGGUCAGGAUAUCGAUGAAUAAUAAAACAAAGGAACAUCGAGAAGGGACAUGAGGAUCACCCAUGUAUAAC [May 80] | 48.4 nM | 42.4 nM
AAAUAGUUAGGAUAUACAUGAGGAUCACCCAUGUGGACUGAUGUCGCGUGAUUCAGUGGUAGAAGGGACUCAAA [EX2 Malc#36] | 75 nM | 47.3 nM
AAAUAGUUAGGAUAUACAUGAGGAUCACCCAUGUGGACUUAUGGAGAAUAGUCUAAUGGUAGAAGGGACUAAAA [EX2 Malc#24] | 45.8 nM | 69.8 nM
AAAUGACUAGGAUAUACAUGAGGAUCACCCAUGUGUUAAAAUAAAUACACAAAAGAAAGUAGAAGGAGUCAAAG [Mat - Exclusion 3 - Mayanna mod - D125] | 43.4 nM | 21.5 nM
AACAAGUCAGGAUAUGCGAAAAGAAAAUAAGAUACACAAAAGCAGAAGGGACAUGAGGAUCACCCAUGUAAAUA [JR_Exc004_Sub011] | 33.1 nM | 36 nM
AACAGGACAGGAUAUACAUGAGGAUCACCCAUGUGAAGAUUAAGAAGAAACCCACAAAGUAGAAGGGUCCUGGA [Ruby 93] | 51 nM | 25 nM
AACAGGACAGGAUAUACAUGAGGAUCACCCAUGUGAGAAUUAAGUAGAUUACCACAGAGUAGAAGGGUCCUGGA [Ruby 96] | 99.5 nM | 47.7 nM
